{
  "source": "patent US20050276799A1",
  "about": "(PDL BIOPHARMA, published 2005)",
  "binders": {"B1": {"name": "OST577-IgG1 wild-type (antibody)", "heavy": "not shown", "light": "SYVLTQPPSVSVAPGQTARITCGGDNIGSKSVNWFQQKPGQAPVLVVYDDNERPSGISERFSGSNSGNTATLTISRVEAGDEADYYCQVWDSSSDHVVFGGGTKLTVLGQPKAAPSVTLFPPSSEELQANKATLVCLISDFYPGAVTVAWKADSSPVKAGVETTTPSKQSNNKYAASSYLSLTPEQWKSHRSYSCQVTHEGSTVEKTVAPTECS", "notes": "Human anti-HBV antibody, IgG1 heavy, lambda-2 light"}, "B2": {"name": "OST577-IgG1 T250Q (antibody)", "heavy": "not shown", "light": "B1 light"}, "B3": {"name": "OST577-IgG1 M428L (antibody)", "heavy": "not shown", "light": "B1 light"}, "B4": {"name": "OST577-IgG1 T250Q/M428L (antibody)", "heavy": "not shown", "light": "B1 light"}, "B5": {"name": "OST577-IgG1 T250E (antibody)", "heavy": "not shown", "light": "B1 light"}, "B6": {"name": "OST577-IgG1 T250E/M428F (antibody)", "heavy": "not shown", "light": "B1 light"}, "B7": {"name": "OST577-IgG1 M428F (antibody)", "heavy": "not shown", "light": "B1 light"}, "B8": {"name": "OST577-IgG2M3 wild-type (antibody)", "heavy": "QVQLVESGGGVVQPGRSLRLSCAASGFTFSRYGMHWVRQAPGKGLEWVAVISYDGSNKWYADSVKGRFTISRDNSKNTLFLQMHSLRAADTGVYFCAKDQLYFGSQSPGHYWGQGTLVTVSSASTKGPSVFPLAPCSRSTSESTAALGCLVKDYFPEPVTVSWNSGALTSGVHTFPAVLQSSGLYSLSSVVTVPSSNFGTQTYTCNVDHKPSNTKVDKTVERKCCVECPPCPAPPAAAPSVFLFPPKPKDTLMISRTPEVTCVVVDVSHEDPEVQFNWYVDGVEVHNAKTKPREEQFNSTFRVVSVLTVVHQDWLNGKEYKCKVSNKGLPAPIEKTISKTKGQPREPQVYTLPPSREEMTKNQVSLTCLVKGFYPSDIAVEWESNGQPENNYKTTPPMLDSDGSFFLYSKLTVDKSRWQQGNVFSCSVMHEALHNHYTQKSLSLSPSK", "light": "B1 light", "notes": "Human anti-HBV antibody, IgG2M3 (V234A, G237A) heavy, lambda-2 light"}, "B9": {"name": "OST577-IgG2M3 T250Q/M428F (antibody)", "heavy": "B8 heavy with T251Q, M429F", "light": "B1 light"}, "B10": {"name": "OST577-IgG2M3 T250Q/M428L (antibody)", "heavy": "B8 heavy with T251Q, M429L", "light": "B1 light"}, "B11": {"name": "OST577-IgG2M3 T250Q (antibody)", "heavy": "B8 heavy with T251Q", "light": "B1 light"}, "B12": {"name": "OST577-IgG2M3 M428L (antibody)", "heavy": "B8 heavy with M429L", "light": "B1 light"}, "B13": {"name": "OST577-IgG2M3 M428F (antibody)", "heavy": "B8 heavy with M429F", "light": "B1 light"}, "B14": {"name": "OST577-IgG2M3 T250V (antibody)", "heavy": "B8 heavy with T251V", "light": "B1 light"}, "B15": {"name": "OST577-IgG2M3 T250S (antibody)", "heavy": "B8 heavy with T251S", "light": "B1 light"}, "B16": {"name": "OST577-IgG2M3 T250A (antibody)", "heavy": "B8 heavy with T251A", "light": "B1 light"}, "B17": {"name": "OST577-IgG2M3 T250E/M428F (antibody)", "heavy": "B8 heavy with T251E, M429F", "light": "B1 light"}},
  "note": "Changes are numbered by the printed parent chain. In names and notes the source's numbering stands.",
  "data": [
    {"biological_target": "T1, recombinant, GPI-linked human FcRn on cell line NS0 HuFcRn (memb), clone 7-3 (human, UniProt P55899 24-297; P61769 21-119)", "T1 construct": "Expressed from pDL208 on the surface of NS0 cells; also called human neonatal Fc receptor; not shown: human c-myc decapeptide flanked by linker peptides, then GPI linkage signal of human decay accelerating factor (vector p)", "assay": "IC50 of wild-type / IC50 of this antibody, same assay", "units": {"Relative Binding": "ratio"}, "values": [
      {"binder": "B1", "Relative Binding": 1},
      {"binder": "B2", "Relative Binding": 3.3},
      {"binder": "B3", "Relative Binding": 11},
      {"binder": "B4", "Relative Binding": 29}
    ]},
    {"biological_target": "T1, recombinant, GPI-linked human FcRn on …", "assay": "IC50 of wild-type / IC50 of this antibody, same assay", "remark": "another data set of the same source", "units": {"Relative Binding": "ratio"}, "values": [
      {"binder": "B1", "Relative Binding": 1},
      {"binder": "B5", "Relative Binding": 2.6},
      {"binder": "B6", "Relative Binding": 14},
      {"binder": "B7", "Relative Binding": 4}
    ]},
    {"biological_target": "T1, recombinant, GPI-linked human FcRn on …", "assay": "competition FACS vs biotinylated OST577-IgG2M3 on NS0 cells expressing human FcRn, FBB pH 6.0", "units": {"IC50": "µg/mL"}, "values": [
      {"binder": "B8", "IC50": 11.9},
      {"binder": "B9", "IC50": 1.5},
      {"binder": "B10", "IC50": 0.43},
      {"binder": "B11", "IC50": 4.2},
      {"binder": "B12", "IC50": 1.79}
    ]},
    {"biological_target": "T1, recombinant, GPI-linked human FcRn on …", "assay": "IC50 of wild-type / IC50 of this antibody, same assay", "remark": "another data set of the same source", "units": {"Relative Binding": "ratio"}, "values": [
      {"binder": "B8", "Relative Binding": 1},
      {"binder": "B9", "Relative Binding": 8},
      {"binder": "B10", "Relative Binding": 28},
      {"binder": "B11", "Relative Binding": 2.8},
      {"binder": "B12", "Relative Binding": 6.7}
    ]},
    {"biological_target": "T1, recombinant, GPI-linked human FcRn on …", "assay": "competition FACS vs biotinylated OST577-IgG1 on NS0 cells expressing human FcRn, FBB pH 6.0", "units": {"IC50": "µg/mL"}, "values": [
      {"binder": "B1", "IC50": 10.3},
      {"binder": "B2", "IC50": 3.14},
      {"binder": "B3", "IC50": 0.896},
      {"binder": "B4", "IC50": 0.351}
    ]},
    {"biological_target": "T2, recombinant, GPI-linked rhesus FcRn on cell line NS0 RhFcRn, clone R-3 (rhesus, UniProt H9Z6D2 24-297; Q6V7J5 21-119, GPI-linked)", "T2 construct": "Expressed from pDL410 on the surface of NS0 cells; not shown: human c-myc decapeptide flanked by linker peptides, then GPI linkage signal of human decay accelerating factor (vector p)", "assay": "competition FACS vs biotinylated OST577-IgG1 on NS0 cells expressing rhesus FcRn, FBB pH 6.0", "units": {"IC50": "µg/mL"}, "values": [
      {"binder": "B1", "IC50": 8.86},
      {"binder": "B2", "IC50": 2.97},
      {"binder": "B3", "IC50": 0.629},
      {"binder": "B4", "IC50": 0.236}
    ]},
    {"biological_target": "T2, recombinant, GPI-linked rhesus FcRn on …", "assay": "competition FACS vs biotinylated OST577-IgG2M3 on NS0 cells expressing rhesus FcRn, FBB pH 6.0", "units": {"IC50": "µg/mL"}, "values": [
      {"binder": "B9", "IC50": 1.77},
      {"binder": "B10", "IC50": 0.554},
      {"binder": "B11", "IC50": 4.05},
      {"binder": "B12", "IC50": 1.92}
    ]},
    {"biological_target": "T1, recombinant, GPI-linked human FcRn on …", "assay": "competition FACS vs biotinylated HuEP5C7-IgG2M3 on NS0 cells expressing human FcRn, FSB pH 6.0", "units": {"IC50": "µg/mL"}, "values": [
      {"binder": "B8", "IC50": 10.7},
      {"binder": "B13", "IC50": 3.4},
      {"binder": "B14", "IC50": 19},
      {"binder": "B15", "IC50": 12},
      {"binder": "B16", "IC50": 13.3}
    ]},
    {"biological_target": "T2, recombinant, GPI-linked rhesus FcRn on …", "assay": "IC50 of wild-type / IC50 of this antibody, same assay", "units": {"Relative Binding": "ratio"}, "values": [
      {"binder": "B1", "Relative Binding": 1},
      {"binder": "B2", "Relative Binding": 3},
      {"binder": "B3", "Relative Binding": 14},
      {"binder": "B4", "Relative Binding": 37}
    ]},
    {"biological_target": "T2, recombinant, GPI-linked rhesus FcRn on …", "assay": "IC50 of wild-type / IC50 of this antibody, same assay", "remark": "another data set of the same source", "units": {"Relative Binding": "ratio"}, "values": [
      {"binder": "B8", "Relative Binding": 1},
      {"binder": "B9", "Relative Binding": 8.4},
      {"binder": "B10", "Relative Binding": 27},
      {"binder": "B11", "Relative Binding": 3.6},
      {"binder": "B12", "Relative Binding": 7.7}
    ]},
    {"biological_target": "T1, recombinant, GPI-linked human FcRn on …", "assay": "competition FACS vs biotinylated HuEP5C7-IgG2M3 on NS0 cells expressing human FcRn, FBB pH 6.0", "units": {"IC50": "µg/mL"}, "values": [
      {"binder": "B8", "IC50": 9.4},
      {"binder": "B13", "IC50": 2.97},
      {"binder": "B17", "IC50": 0.639}
    ]},
    {"biological_target": "T1, recombinant, GPI-linked human FcRn on …", "assay": "IC50 of wild-type / IC50 of this antibody, same assay", "remark": "another data set of the same source", "units": {"Relative Binding": "ratio"}, "values": [
      {"binder": "B8", "Relative Binding": 1},
      {"binder": "B13", "Relative Binding": 3.1},
      {"binder": "B14", "Relative Binding": 0.56},
      {"binder": "B15", "Relative Binding": 0.89},
      {"binder": "B16", "Relative Binding": 0.8}
    ]},
    {"biological_target": "T1, recombinant, GPI-linked human FcRn on …", "assay": "competition FACS vs biotinylated OST577-IgG1 on NS0 cells expressing human FcRn, FBB pH 6.0", "remark": "another data set of the same source", "units": {"IC50": "µg/mL"}, "values": [
      {"binder": "B1", "IC50": 13.9},
      {"binder": "B5", "IC50": 5.26},
      {"binder": "B6", "IC50": 0.99},
      {"binder": "B7", "IC50": 3.44}
    ]},
    {"biological_target": "T1, recombinant, GPI-linked human FcRn on …", "assay": "IC50 of wild-type / IC50 of this antibody, same assay", "remark": "another data set of the same source", "units": {"Relative Binding": "ratio"}, "values": [
      {"binder": "B8", "Relative Binding": 1},
      {"binder": "B13", "Relative Binding": 3.2},
      {"binder": "B17", "Relative Binding": 15}
    ]}
  ]
}
